Test [1] deals with T1, wild-type H6-PKA-Cα, untreated (alpha isoform of the catalytic subunit of cAMP-dependent protein kinase) (murine, UniProt P05132 2-351). In words: SPR; OpenSPR-XT; CREBtide coupled to a carboxyl sensor; PKA-Cα flowed at 75 µL/min; 1X HBS-P+, 10 mM MgCl2, 0.01% NP-40, 0.5% BSA, 10 µM AMP-PNP, pH 7.4; kinetics analysis; apparent. To be noted: both partners purified. (In general: In SPR one partner is held on a chip, and binding of the other changes the refractive index at the surface.)

Test [2] has as its target T1, wild-type H6-PKA-Cα, untreated (alpha …). Kind of test: SPR; OpenSPR-XT; CREBtide coupled (EDC/sulfo-NHS) to a carboxyl sensor, surface blocked with monomeric streptavidin and ethanolamine; PKA-Cα 0.078–10 µM flowed at 20 µL/min; 1X HBS-P+, 10 mM MgCl2, 0.01% NP-40, 0.5% BSA, 10 µM AMP-PNP, pH 7.4; equilibrium analysis; apparent. To be noted: both partners purified.

B1: CREBtide (peptide)
peptide: KRREILSRRPSYR
notes: Coupled by EDC/sulfo-NHS to the carboxyl sensor in SPR; source: bought: Alfa Aesar
For B1, the Kd in test [1] is 2800 ± 750 nM; in test [2], 3.3 ± 1 µM.

The values are drawn from PMC10532679 (Life, 2023).
